To fix the notation:
B1: Zinc finger homeobox protein 4, residues 2562 to 2617; numbered along this chain, Q86UP3 (parent)
chain: RLRTTITPEQLEILYEKYLLDSNPTRKMLDHIAREVGLKKRVVQVWFQNTRARERK

± gives the uncertainty stated by the source.

This data set covers variants of B1. Nature of the data set: abundance fitness (aPCA) (normalised: wild type 0, dead -1); higher = more abundant; growth selection in yeast, the domain comes from the species named. The settings on record: Homo sapiens.
Regarding RLRTTITPEQLEILYEKYLLDSNPTRKKLDHIAREVGLKKRVVQVWFQNTRARERK [M28K], the abundance fitness was -0.582 ± 0.17.
In the case of RLRTTITPEQLEILYEKYLLDSNPTRKTLDHIAREVGLKKRVVQVWFQNTRARERK [M28T], the abundance fitness was -0.003 ± 0.066.
Under RLRTTITPEQLEILYEKYLLDSNPTRKSLDHIAREVGLKKRVVQVWFQNTRARERK [M28S] stands -0.152 ± 0.053.
The same measure for RLRTTITPEQLEILYEKYLLDSNPTRKNLDHIAREVGLKKRVVQVWFQNTRARERK [M28N]: -0.409 ± 0.12; for RLRTTITPEQLEILYEKYLLDSNPTRKVLDHIAREVGLKKRVVQVWFQNTRARERK [M28V]: -0.119 ± 0.074; for RLRTTITPEQLEILYEKYLLDSNPTRKYLDHIAREVGLKKRVVQVWFQNTRARERK [M28Y]: -0.406 ± 0.099.
For the variant RLRTTITPEQLEILYEKYLLDSNPTRKPLDHIAREVGLKKRVVQVWFQNTRARERK [M28P], the abundance fitness was -1.06 ± 0.23.
Under RLRTTITPEQLEILYEKYLLDSNPTRKQLDHIAREVGLKKRVVQVWFQNTRARERK [M28Q] stands -0.067 ± 0.059; under RLRTTITPEQLEILYEKYLLDSNPTRKILDHIAREVGLKKRVVQVWFQNTRARERK [M28I], -0.101 ± 0.15.
The same measure for RLRTTITPEQLEILYEKYLLDSNPTRKWLDHIAREVGLKKRVVQVWFQNTRARERK [M28W]: -0.577 ± 0.096; for RLRTTITPEQLEILYEKYLLDSNPTRKHLDHIAREVGLKKRVVQVWFQNTRARERK [M28H]: -0.305 ± 0.096; for RLRTTITPEQLEILYEKYLLDSNPTRKLLDHIAREVGLKKRVVQVWFQNTRARERK [M28L]: -0.102 ± 0.064.
As to RLRTTITPEQLEILYEKYLLDSNPTRKFLDHIAREVGLKKRVVQVWFQNTRARERK [M28F], the abundance fitness was -0.591 ± 0.1.
For the variant RLRTTITPEQLEILYEKYLLDSNPTRKRLDHIAREVGLKKRVVQVWFQNTRARERK [M28R], the abundance fitness is -0.297 ± 0.074.
The same measure for RLRTTITPEQLEILYEKYLLDSNPTRKGLDHIAREVGLKKRVVQVWFQNTRARERK [M28G]: -0.108 ± 0.055; for RLRTTITPEQLEILYEKYLLDSNPTRKCLDHIAREVGLKKRVVQVWFQNTRARERK [M28C]: -0.067 ± 0.11; for RLRTTITPEQLEILYEKYLLDSNPTRKELDHIAREVGLKKRVVQVWFQNTRARERK [M28E]: -0.003 ± 0.099.
RLRTTITPEQLEILYEKYLLDSNPTRKDLDHIAREVGLKKRVVQVWFQNTRARERK [M28D]: the abundance fitness is 0.242 ± 0.091.
Turning to RLRTTITPEQLEILYEKYLLDSNPTRSMLDHIAREVGLKKRVVQVWFQNTRARERK [K27S], the abundance fitness came out at 0.074 ± 0.08.
The same measure for RLRTTITPEQLEILYEKYLLDSNPTRMMLDHIAREVGLKKRVVQVWFQNTRARERK [K27M]: -0.206 ± 0.14; for RLRTTITPEQLEILYEKYLLDSNPTRRMLDHIAREVGLKKRVVQVWFQNTRARERK [K27R]: -0.475 ± 0.062; for RLRTTITPEQLEILYEKYLLDSNPTRAMLDHIAREVGLKKRVVQVWFQNTRARERK [K27A]: 0.169 ± 0.07.
Under RLRTTITPEQLEILYEKYLLDSNPTRTMLDHIAREVGLKKRVVQVWFQNTRARERK [K27T] stands -0.147 ± 0.087; under RLRTTITPEQLEILYEKYLLDSNPTRVMLDHIAREVGLKKRVVQVWFQNTRARERK [K27V], 0.099 ± 0.086.
The same measure for RLRTTITPEQLEILYEKYLLDSNPTRGMLDHIAREVGLKKRVVQVWFQNTRARERK [K27G]: 0.074 ± 0.069; for RLRTTITPEQLEILYEKYLLDSNPTRWMLDHIAREVGLKKRVVQVWFQNTRARERK [K27W]: -0.302 ± 0.081; for RLRTTITPEQLEILYEKYLLDSNPTRLMLDHIAREVGLKKRVVQVWFQNTRARERK [K27L]: -0.019 ± 0.053.
RLRTTITPEQLEILYEKYLLDSNPTRDMLDHIAREVGLKKRVVQVWFQNTRARERK [K27D]: the abundance fitness came to 0.478 ± 0.1.
The same measure for RLRTTITPEQLEILYEKYLLDSNPTRIMLDHIAREVGLKKRVVQVWFQNTRARERK [K27I]: -0.245 ± 0.16.
With RLRTTITPEQLEILYEKYLLDSNPTRYMLDHIAREVGLKKRVVQVWFQNTRARERK [K27Y], the abundance fitness is -0.142 ± 0.065.
As to RLRTTITPEQLEILYEKYLLDSNPTRPMLDHIAREVGLKKRVVQVWFQNTRARERK [K27P], the abundance fitness came to 0.128 ± 0.1.
As to RLRTTITPEQLEILYEKYLLDSNPTRHMLDHIAREVGLKKRVVQVWFQNTRARERK [K27H], the abundance fitness was determined as 0.083 ± 0.12.
The same measure for RLRTTITPEQLEILYEKYLLDSNPTREMLDHIAREVGLKKRVVQVWFQNTRARERK [K27E]: 0.147 ± 0.11.
Under RLRTTITPEQLEILYEKYLLDSNPTRCMLDHIAREVGLKKRVVQVWFQNTRARERK [K27C] stands -0.096 ± 0.11; under RLRTTITPEQLEILYEKYLLDSNPTRNMLDHIAREVGLKKRVVQVWFQNTRARERK [K27N], -0.112 ± 0.12.
Under RLRTTITPEQLEILYEKYLLDSNPTRQMLDHIAREVGLKKRVVQVWFQNTRARERK [K27Q] stands 0.082 ± 0.092; under RLRTTITPEQLEILYEKYLLDSNPTRFMLDHIAREVGLKKRVVQVWFQNTRARERK [K27F], -0.265 ± 0.073; under RLRTTITPEQLEILYEKYLLDSNPTGKMLDHIAREVGLKKRVVQVWFQNTRARERK [R26G], -0.143 ± 0.18.
In the case of RLRTTITPEQLEILYEKYLLDSNPTNKMLDHIAREVGLKKRVVQVWFQNTRARERK [R26N], the abundance fitness came to 1.41 ± 0.34.
Under RLRTTITPEQLEILYEKYLLDSNPTHKMLDHIAREVGLKKRVVQVWFQNTRARERK [R26H] stands -0.017 ± 0.36.
Turning to RLRTTITPEQLEILYEKYLLDSNPTPKMLDHIAREVGLKKRVVQVWFQNTRARERK [R26P], the abundance fitness was -0.236 ± 0.33.
For RLRTTITPEQLEILYEKYLLDSNPTSKMLDHIAREVGLKKRVVQVWFQNTRARERK [R26S], the abundance fitness was determined as 0.142 ± 0.084.
Take RLRTTITPEQLEILYEKYLLDSNPTEKMLDHIAREVGLKKRVVQVWFQNTRARERK [R26E]: the abundance fitness was 0.171 ± 0.16.
The same measure for RLRTTITPEQLEILYEKYLLDSNPTIKMLDHIAREVGLKKRVVQVWFQNTRARERK [R26I]: 0.917 ± 0.22; for RLRTTITPEQLEILYEKYLLDSNPTWKMLDHIAREVGLKKRVVQVWFQNTRARERK [R26W]: 0.237 ± 0.1; for RLRTTITPEQLEILYEKYLLDSNPTQKMLDHIAREVGLKKRVVQVWFQNTRARERK [R26Q]: 0.369 ± 0.075.
The same measure for RLRTTITPEQLEILYEKYLLDSNPTYKMLDHIAREVGLKKRVVQVWFQNTRARERK [R26Y]: 0.867 ± 0.26.
